According to patent US20220072094A1:

Target: PLCγ1 (mouse, endogenous, hippocampus) (mouse) (UniProt Q62077)
Experiment: cell-based or functional assay

## TrkB Y816F (mouse, trkB PLC/PLC knock-in) (from UniProt P15209 32-821) (receptor)
  decrease in pY783 PLCγ1 immunoreactivity in hippocampal synaptic membranes, trkB^PLC/PLC against trkB^WT/WT after normal saline (Western blot): 38%
  pY783 PLCγ1 immunoreactivity in hippocampal synaptic membranes after status epilepticus, trkB^WT/WT over trkB^PLC/PLC (Western blot): 1.84 fold
